Test results taken from publication PMC10377357 (2023).

B1: Rps2(1–145)-TurboID [S. cerevisiae] / Tsr4 [S. cerevisiae (endogenous in YDK11-5A)] (parent complex)
chain 1: MSAPEAQQQKRGGFGGRNRGRPNRRGPRNTEEKGWVPVTKLGRLVKAGKITTIEEIFLHSLPVKEFQIIDTLLPGLQDEVMNIKPVQKQTRAGQRTRFKAVVVVGDSNGHVGLGIKTAKEVAGAIRAGIIIAKLSVIPIRRGYWG
chain 2: MSKIEELPPSDTDDHSYSSKPGDVFLAFVDAPVKETDDILVEDSFIGGEPKWLHPDSEPPAELLKCGACKSADNMKLLLQAFSPLDDEQMSAIQQRLGINNMSYINPQDDRVLYVFLCTECQRKGNSVRCIRGVKKNKNVDSLSEKMASTSLEKDFQINPFDLSNNSDSKCNAFSSNPFGGANANPFGADSINSNISQSKDEGKKKESATVSAKTARKLHDLQKDKEYDGNKCFKSCLLYVEEETFKNKKPAHLQLPKNLKIDKEALDLTGDEDLEKDPIKLDPRTEKLSKFLDDDTFQKFQEVVGYNPLQVLRYDLGGKPLLYAETKVDILSTVPRPGYNPSSQRIFEMQLMPKMIFDLEEVVSVDNGMEWGTILVFTDVENYMPEFDEHGVGYVEECVKVQWESRT
B2: Rps2(1–145)-TurboID [S. cerevisiae] / Pse1 [S. cerevisiae (endogenous in the yeast strains)] (parent complex)
chain 1: B1 chain 1
chain 2: MSALPEEVNRTLLQIVQAFASPDNQIRSVAEKALSEEWITENNIEYLLTFLAEQAAFSQDTTVAALSAVLFRKLALKAPPSSKLMIMSKNITHIRKEVLAQIRSSLLKGFLSERADSIRHKLSDAIAECVQDDLPAWPELLQALIESLKSGNPNFRESSFRILTTVPYLITAVDINSILPIFQSGFTDASDNVKIAAVTAFVGYFKQLPKSEWSKLGILLPSLLNSLPRFLDDGKDDALASVFESLIELVELAPKLFKDMFDQIIQFTDMVIKNKDLEPPARTTALELLTVFSENAPQMCKSNQNYGQTLVMVTLIMMTEVSIDDDDAAEWIESDDTDDEEEVTYDHARQALDRVALKLGGEYLAAPLFQYLQQMITSTEWRERFAAMMALSSAAEGCADVLIGEIPKILDMVIPLINDPHPRVQYGCCNVLGQISTDFSPFIQRTAHDRILPALISKLTSECTSRVQTHAAAALVNFSEFASKDILEPYLDSLLTNLLVLLQSNKLYVQEQALTTIAFIAEAAKNKFIKYYDTLMPLLLNVLKVNNKDNSVLKGKCMECATLIGFAVGKEKFHEHSQELISILVALQNSDIDEDDALRSYLEQSWSRICRILGDDFVPLLPIVIPPLLITAKATQDVGLIEEEEAANFQQYPDWDVVQVQGKHIAIHTSVLDDKVSAMELLQSYATLLRGQFAVYVKEVMEEIALPSLDFYLHDGVRAAGATLIPILLSCLLAATGTQNEELVLLWHKASSKLIGGLMSEPMPEITQVYHNSLVNGIKVMGDNCLSEDQLAAFTKGVSANLTDTYERMQDRHGDGDEYNENIDEEEDFTDEDLLDEINKSIAAVLKTTNGHYLKNLENIWPMINTFLLDNEPILVIFALVVIGDLIQYGGEQTASMKNAFIPKVTECLISPDARIRQAASYIIGVCAQYAPSTYADVCIPTLDTLVQIVDFPGSKLEENRSSTENASAAIAKILYAYNSNIPNVDTYTANWFKTLPTITDKEAASFNYQFLSQLIENNSPIVCAQSNISAVVDSVIQALNERSLTEREGQTVISSVKKLLGFLPSSDAMAIFNRYPADIMEKVHKWFA
B3: Rps2(76–145)-TurboID [S. cerevisiae] / Pse1 [S. cerevisiae (endogenous in the yeast strains)] (parent complex)
chain 1: LQDEVMNIKPVQKQTRAGQRTRFKAVVVVGDSNGHVGLGIKTAKEVAGAIRAGIIIAKLSVIPIRRGYWG
chain 2: B2 chain 2

Variants of: B1
Test: TurboID-based proximity labeling; parent: 5.9; read off a plot

| enrichment | Variant |
| --- | --- |
| ~5.9 log2 fold change vs controls | chain 1 R95A, chain 1 R97A, chain 1 K99A |

Variants of: B1
Test: TurboID-based proximity labeling; parent: 210; read off a plot

| response | Variant |
| --- | --- |
| ~260 normalized iBAQ | chain 1 R95A, chain 1 R97A, chain 1 K99A |

Variants of: B2
Test: TurboID-based proximity labeling; parent: 2; read off a plot

| enrichment | Variant |
| --- | --- |
| ~0.9 log2 fold change vs controls | chain 1 R95A, chain 1 R97A, chain 1 K99A |

Variants of: B2
Test: TurboID-based proximity labeling; parent: 30; read off a plot

| response | Variant |
| --- | --- |
| ~26 normalized iBAQ | chain 1 R95A, chain 1 R97A, chain 1 K99A |

Variants of: B3
Test: TurboID-based proximity labeling; baits expressed from plasmid under the copper-inducible CUP1 promoter; parent: 3.1; read off a plot

| enrichment | Variant |
| --- | --- |
| ~-0.4 log2 fold change vs controls | chain 1 R20A, chain 1 R22A, chain 1 K24A |

Variants of: B3
Test: TurboID-based proximity labeling; baits expressed from plasmid under the copper-inducible CUP1 promoter; parent: 100; read off a plot

| response | Variant |
| --- | --- |
| ~9 normalized iBAQ | chain 1 R20A, chain 1 R22A, chain 1 K24A |
